According to PMC7611554:

Biological target: SNAP-LepR:EGFR complex (UniProt P48356)
Experiment: FRET or BRET

## EGF-d2 (ligand)
  Kd: 2.1 nM
